From patent publication US20240041989A1 (UNIVERSITY OF KENTUCKY RESEARCH FOUNDATION, published 2024)
Positions count from the first letter of the chain named. Names may count otherwise. Each block holds one binder with its values, some of them ahead of it.

What was measured:
[1] = molecular target: T1, Human FcRn, soluble single-chain fusion protein (B2M-(GGGGS)3-heavy chain without transmembrane domain-6xHis) (human, UniProt P61769 21-119; P55899 24-297); assay: ELISA, FcRn coated on plate, pH 6.0
T1 construct: also called neonatal Fc receptor; hFcRn
Procedure: (§1) In vitro binding affinity assay. The binding affinity of the BChE fusion proteins corresponding to CocH3-Fc (SEQ ID NO: 9), CocH3-Fc(M6) (SEQ ID NO: 10), CocH3G-Fc(M3) (SEQ ID NO: 11), CocH3G-Fc(M4) (SEQ ID NO: 12), CocH3G-Fc(M6) (SEQ ID NO: 13), CocH5G-Fc(M3) (SEQ ID NO: 14), CocH5G-Fc(M4) (SEQ ID NO: 15), and CocH5G-Fc(M6) (SEQ ID NO: 16), BChE-Fc(M3) (SEQ ID NO: 17), BChE-Fc(M4) (SEQ ID NO: 18), and BChE-Fc(M6) (SEQ ID NO: 19) with FcRn was determined by using an enzyme-linked immunosorbent assay (ELISA). 400 ng of the 6×His-tagged FcRn in 100 μL 0.05 M PBS, pH 7.4, was immobilized in a 96-well flat-bottomed EIA plate (Corning) at 4° C. overnight (or 37° C. for 2 hours). At the same time, corresponding empty wells without FcRn coating were left as a negative control. The liquid was dumped from the plates and the rest was drained on a paper towel. Coated wells were blocked with blocking buffer (0.05 M PBS, pH 6.0, containing 1 mg/ml casein) (250 μL/well) at room temperature (RT) for 1 hour. After washing twice with washing buffer (0.05 M PBS, pH 6.0) (250 μL/well), 100 μL of BChE fusion protein diluted in blocking buffer, pH 6.0 was added to each well at a range of concentrations. The plate was then covered with an adhesive plastic and incubated, with continuous shaking, at RT for 1 hour. After washing three times with washing buffer, an enzyme horseradish peroxidase (HRP)-conjugated antibody (anti-human IgG-Fc Ab-HRP) (70 μL/well), diluted with blocking buffer at a ratio of 1:20,000, was added into each well and incubated at RT for 30 minutes on a shaker. The wells were then washed three times with washing buffer (250 μL/well) before 250 μL TMB substrate was added to the wells. The ELISA plate was kept in the dark until the desired color developed. The reaction was stopped with 100 μL of 0.5 M HCl. The absorbance (the developed blue color) was measured at 450 nm using a microplate reader. All measurements were performed in triplicate or quadruplicate.

[2] = molecular target: T1, Human FcRn, soluble single-chain fusion …; assay: ELISA, FcRn coated on plate, pH 6.0; reference CocH3-Fc
Procedure: as §1, with “After washing three times with washing buffer, an enzyme horseradish peroxidase (HRP)-conjugated antibody (anti-human IgG-Fc Ab-HRP) (70 μL/well), diluted with blocking buffer at a ratio of 1:20,000, was added into each well and incubated at RT for 30 minutes on a shaker. The wells were then washed three times with washing buffer (250 μL/well) before 250 μL TMB substrate was added to the wells. The ELISA plate was kept in the dark until the desired color developed. The reaction was stopped with 100 μL of 0.5 M HCl.” left out, “All measurements were performed in triplicate or quadruplicate.” left out

[3] = molecular target: T1, Human FcRn, soluble single-chain fusion …; assay: ELISA, FcRn coated on plate, pH 6.0, anti-human IgG-Fc-HRP detection
Procedure: as §1, with “After washing three times with washing buffer, an enzyme horseradish peroxidase (HRP)-conjugated antibody (anti-human IgG-Fc Ab-HRP) (70 μL/well), diluted with blocking buffer at a ratio of 1:20,000, was added into each well and incubated at RT for 30 minutes on a shaker. The wells were then washed three times with washing buffer (250 μL/well) before 250 μL TMB substrate was added to the wells. The ELISA plate was kept in the dark until the desired color developed. The reaction was stopped with 100 μL of 0.5 M HCl.” left out, “All measurements were performed in triplicate or quadruplicate.” left out

T1 sequence (P61769 other isoform, or with tags, fused parts or gaps limits assumed): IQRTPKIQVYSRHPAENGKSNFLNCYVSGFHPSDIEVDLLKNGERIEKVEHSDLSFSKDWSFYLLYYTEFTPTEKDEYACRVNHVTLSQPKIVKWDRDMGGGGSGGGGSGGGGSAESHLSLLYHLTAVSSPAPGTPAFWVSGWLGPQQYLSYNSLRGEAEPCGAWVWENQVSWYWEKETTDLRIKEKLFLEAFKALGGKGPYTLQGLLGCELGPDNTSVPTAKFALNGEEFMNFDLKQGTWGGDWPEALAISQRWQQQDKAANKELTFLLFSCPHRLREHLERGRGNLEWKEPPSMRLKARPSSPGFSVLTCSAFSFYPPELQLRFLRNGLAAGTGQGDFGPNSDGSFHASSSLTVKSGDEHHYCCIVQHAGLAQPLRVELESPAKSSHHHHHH

Kd [1]: 40 nM
B1: BChE-Fc(M6) (Fc fusion)
chain: EDDIIIATKNGKVRGMNLTVFGGTVTAFLGIPYAQPPLGRLRFKKPQSLTKWSDIWNATKYANSCCQNIDQSFPGFHGSEMWNPNTDLSEDCLYLNVWIPAPKPKNATVLIWIYGGGFQTGTSSLHVYDGKFLARVERVIVVSMNYRVGALGFLALPGNPEAPGNMGLFDQQLALQWVQKNIAAFGGNPKSVTLFGESAGAASVSLHLLSPGSHSLFTRAILQSGSFNAPWAVTSLYEARNRTLNLAKLTGCSRENETEIIKCLRNKDPQEILLNEAFVVPYGTPLSVNFGPTVDGDFLTDMPDILLELGQFKKTQILVGVNKDEGTAFLVYGAPGFSKDNNSIITRKEFQEGLKIFFPGVSEFGKESILFHYTDWVDDQRPENYREALGDVVGDYNFICPALEFTKKFSEWGNNAFFYYFEHRSSKLPWPEWMGVMHGYEIEFVFGLPLERRDNYTKAEEILSRSIVKRWANFAKYGNPNETQNNSTSWPVFKSTEQKYLTLNTESTRIMTKLRAQQCRFWTSFFPKVVEPKSCDKTHTCPPCPAPELLGGPSVFLFPPKPKDTLYITREPEVTCVVVDVSHEDPEVKFNWYVDGVEVHNAKTKPREEQYNSTYRVVSVLTVLHQDWLNGKEYKCKVSNKALPAPIEKTISKAKGQPREPQVYTLPPSREEMTKNQVSLTCLVKGFYPSDIAVEWESNGQPENNYKTTPPVLDSDGSFFLYSKLTVDKSRWQQGNVFSCSVMHEALHNHYTQKSLSLSPGK
notes: Wild-type BChE fused to Fc(M6)

Kd [1]: 40 nM
B2: CocH3G-Fc(M6) (Fc fusion)
chain: B1 chain with A199S, F227A, S287G, A328W, Y332G, T523G

Kd [1]: 40 nM
B3: CocH5G-Fc(M6) (Fc fusion)
chain: B1 chain with A199S, F227A, P285A, S287G, A328W, Y332G, T523G

Kd [1]: 43 nM | fold improvement in binding affinity against CocH3-Fc [2]: ~100 fold | Kd [3]: 43 nM
B4: CocH3-Fc(M6) (Fc fusion)
chain: B1 chain with A199S, F227A, S287G, A328W, Y332G
notes: Expressed in CHO-S cells and purified on protein A; also called A530V/M567Y/S569T/T571E/D671E/L673M mutant of CocH3-Fc
